The target in assay [1] is CHIP (UniProt Q9UNE7). In words: fluorescence polarization titration. Conditions: reference: unphosphorylated EEVD peptide; sites T636.
In assay [2] the test system is HSP70 steady-state levels in HEK-293 cells. Description: Cycloheximide chase of HSP70 steady-state levels, HEK-293. The assay is classed as cell-based. The note with it: Flag immunoblot, representative, Fig. S1. The method, then:
(§1) HEK293 and COS-7 cells were acquired from the UNC Lineberger Comprehensive Cancer Center Tissue Culture Facility. Cultures were maintained in Dulbecco’s Modified Eagle Medium with 10% fetal bovine serum at 37 °C and 5% CO2. Using the manufacturers’ instructions, X-tremeGENE 9 was used to transfect cells with plasmid DNA except for NanoBiT constructs, in which case we used Lipofectamine 3000 (Thermo Fisher Scientific). Where indicated, twenty-four hours post-transfection, cells were treated with 20 μM MG-132 (Selleck Chemicals) for 6 h or 100 μM cycloheximide (Sigma-Aldrich) for the stated duration.
(§2) Samples were collected in a lysis buffer composed of 50 mM Tris-HCl (pH 7.4), 150 mM NaCl, 2 mM EDTA, and 1% Triton X-100, supplemented with 1X Halt protease and phosphatase inhibitor (Thermo Scientific). The samples were then sonicated and combined with Laemmli sample buffer (Bio-Rad). The lysates were resolved on 4–15% TGX Stain-Free gels (Bio-Rad) and transferred to PVDF membranes (Bio-Rad). The membranes were blocked in 5% milk and incubated with primary antibodies (Table S3) overnight at 4°C. Following this, HRP-conjugated secondary antibodies (Cell Signaling Technology) were applied. Detection was performed using Lumigen ECL Ultra (Lumigen, tma-100), and the blots were imaged with the ChemiDoc Imaging System (BioRad).
In general terms: A western blot detects proteins with antibodies after separation by electrophoresis.

The test system of assay [3] is LgBiT-HSP70 T636A/D. Description: NanoBiT live-cell interaction, HEK-293, CHIP variants with LgBiT-HSP70. The assay is classed as cell-based. The note with it: compared with CHIP-WT, Fig. 1E. How it is done:
as §1
NanoBiT Protein: Protein Interaction System (Promega) was used to measure protein-protein interaction data following the manufacturer’s instructions. As previously described, LgBiT-HSP70 and SmBiT-CHIP construct interactions were used as positive controls ([22]). Twenty-four hours post-transfection, the cells were collected, replated in 96-well clear bottom white-sided tissue culture plates, and maintained at 37 °C and 5% CO2 for 45 min. Nano-Glo Live Cell Reagent (Promega) was added, and luminescence was measured using a CLARIOstar microplate reader over 20 minutes. The total area under the maximum luminescence curve was quantified and used to compare changes in HSP70-CHIP interactions relative to the WT-WT conditions.

Assay [4] relates to HSC70. Description: Cell-free ubiquitination of HSC70 by CHIP. Type of assay: biochemical, human. Conditions: 100 nM Uba1, 1 μM UBE2D2, 200 nM Hsc70, 100 μM Ub, 1 μM CHIP, pH 8.0, 15 min, room temperature; three experiments; p = 0.0774; Fig. 1K. The method, then: Ubiquitination assays were conducted using recombinant human HSC70, fluorescently tagged on its N-terminus. All assay components except ubiquitin were premixed on ice in a BSA-containing buffer (20 mM HEPES, pH 8.0; 200 mM NaCl; 0.5 mg/mL BSA). Reactions were initiated by adding ubiquitin and were allowed to proceed at room temperature unless specified otherwise. The reactions contained a final concentration of 100 nM Uba1, 1 μM UBE2D2, 200 nM Hsc70, 100 μM Ub, 5 mM MgCl2-ATP, and 1 μM CHIP. The reactions proceeded for 15 minutes before being quenched with SDS loading buffer. The quenched samples were separated by molecular weight via SDS-PAGE in non-reducing conditions using GenScript SurePAGE 4–12% gels. The CHIP-dependent ubiquitination of Hsc70 was visualized and quantified through fluorescent scanning on an Amersham Typhoon 5.

Assay [5] deals with T1, CHIP-G132N (Homo sapiens, UniProt Q9UNE7, G132N).
T1 construct: Recombinant CHIP-TPR constructs were recombinantly expressed using the pHis//2 CHIP-TPR (21–154) plasmid; His; made in house
T1 sequence (Q9UNE7 21-154 G132N): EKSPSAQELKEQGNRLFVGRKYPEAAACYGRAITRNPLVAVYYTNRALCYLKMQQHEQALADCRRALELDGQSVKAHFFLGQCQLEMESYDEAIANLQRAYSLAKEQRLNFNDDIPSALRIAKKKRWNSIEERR
In words: Biolayer interferometry, CHIP-G132N TPR. Type of assay: binding. The note with it: BLI; CHIP-G132N TPR; Fig. 2E. How it is done:
Bio-layer interferometry measured peptide binding using a BLItz instrument (FortéBio, Sartorius) with streptavidin (SA) sensors. Biotin-EEVD and biotin-pEEVD were solubilized in 20 mM HEPES, 150 mM NaCl, pH 7.0. Affinity measurements were made using the advanced kinetic protocol within the BLItz Pro system software. Biosensors were hydrated for ten minutes in assay buffer comprising 20 mM HEPES, 150 mM NaCl, 5 mM β-mercaptoethanol, pH 7.2. For each affinity measurement, a new, hydrated biosensor was placed on the BLItz tip, and the “Initial Baseline” step was completed by incubation for 30 seconds in 500 μl assay buffer in an opaque black microcentrifuge tube (Argos Technologies). Peptides were loaded during the “Loading Step” by incubating the tip in 4 μl of either peptide for 60 seconds. The “Baseline step” was then conducted by incubation for 30 seconds in 500 μl assay buffer in an opaque black microcentrifuge tube. The “Association step” was performed by incubating the tip in 4 μl of the appropriate TPR protein construct, at protein concentrations of 1 to 25 μM, in assay buffer in an opaque black microcentrifuge tube for 120 seconds. […] Affinities (Kd) were calculated by the BLItz Pro software as Kd=koff/kon, where koff and kon were determined by individual fits to the “dissociation step” and “association step,” respectively, for each run.

The test system of assay [6] is HSP70. Description: Co-immunoprecipitation of CHIP variants with HSP70, COS-7. The assay is classed as cell-based. The note with it: Co-IP of MYC-CHIP, Fig. 1I. How it is done: as §2
Ezview™ Red Anti-c-Myc Affinity Gel Beads (Sigma-Aldrich) were used for co-immunoprecipitation of myc-tagged proteins. Proteins were eluted via boiling before western blot analysis.

Assay [7] has as its target T2, CHIP-TPR G132S (UniProt Q9UNE7 21-154, G132S).
T2 construct: CHIP, extended TPR domain, residues 21-154, with G132S; site modification control of the BLI experiment; also called CHIP-G132S
T2 sequence (looked up): T1 sequence (Q9UNE7 21-154 G132N) with N112S
Description: BLI; BLItz, biotin peptides loaded on streptavidin sensors, TPR protein constructs at 1 to 25 μM; 20 mM HEPES, 150 mM NaCl, 5 mM β-mercaptoethanol, pH 7.2; Kd=koff/kon. Conditions: both partners purified. On the technique in general: BLI is a label-free optical method that tracks binding on a fibre tip over time.

The target in assay [8] is T3, CHIP-TPR N65S (UniProt Q9UNE7 21-154, N65S).
T3 construct: CHIP, extended TPR domain, residues 21-154, with N65S; control of the BLI experiment; also called CHIP-N65S
T3 sequence (looked up): T1 sequence (Q9UNE7 21-154 G132N) with N45S, N112G
The assay is described as above. The note with it: both partners purified.

Assay [9] addresses T4, CHIP-TPR (21–154) (UniProt Q9UNE7 21-154).
T4 construct: also called extended TPR domain of CHIP
T4 sequence (looked up): T1 sequence (Q9UNE7 21-154 G132N) with N112G
In words: crystal structure; CHIP-TPR co-crystallised with peptide at a 3:1 peptide:protein ratio, sitting drop vapor diffusion at room temperature; 0.2 M lithium sulfate, 0.1 M Tris-HCl, pH 8.5, 30% PEG 4000. The note with it: both partners purified.

The target in assay [10] is T5, recombinant full-length CHIP-WT (UniProt Q9UNE7 1-303).
T5 chain: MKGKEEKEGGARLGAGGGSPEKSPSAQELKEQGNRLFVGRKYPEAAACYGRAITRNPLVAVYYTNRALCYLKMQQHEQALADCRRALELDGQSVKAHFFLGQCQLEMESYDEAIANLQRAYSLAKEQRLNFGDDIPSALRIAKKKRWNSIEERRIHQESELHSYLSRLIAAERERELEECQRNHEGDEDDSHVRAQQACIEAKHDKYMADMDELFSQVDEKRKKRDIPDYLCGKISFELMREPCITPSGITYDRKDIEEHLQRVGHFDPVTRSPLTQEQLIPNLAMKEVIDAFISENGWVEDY
Description: FP.

Assay [11] has as its target recombinant full-length CHIP-G132N (UniProt Q9UNE7 1-303, G132N). Description: FP.
Target sequence in this assay (Q9UNE7 whole entry G132N): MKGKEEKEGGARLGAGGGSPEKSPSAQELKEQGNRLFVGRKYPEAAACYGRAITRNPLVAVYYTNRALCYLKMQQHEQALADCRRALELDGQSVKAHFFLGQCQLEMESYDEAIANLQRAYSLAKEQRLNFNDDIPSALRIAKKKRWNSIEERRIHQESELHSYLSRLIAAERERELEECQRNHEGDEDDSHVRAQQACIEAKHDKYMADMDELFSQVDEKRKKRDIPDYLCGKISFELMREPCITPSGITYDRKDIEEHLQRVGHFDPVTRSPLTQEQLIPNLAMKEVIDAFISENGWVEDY
The target of assay [12] is T4, CHIP-TPR (21–154). Description: fluorescence polarisation; 20 nM N-terminally FITC-labelled peptide, recombinant CHIP constructs at increasing concentrations, 30 minutes at room temperature; one site/total binding fit with Bmax constrained to 100. The note with it: both partners purified. Background: Polarisation of emitted light reports the rotation of a fluorescent probe.

Assay [13] addresses T6, recombinant full-length CHIP-WT (UniProt Q9UNE7 1-303).
T6 sequence (looked up): T5 chain
Described as above. Conditions: both partners purified.

In assay [14] the target is T7, recombinant full-length CHIP-G132N (UniProt Q9UNE7 1-303, G132N).
T7 construct: CHIP, full-length recombinant protein with G132N
T7 sequence (looked up): T5 chain with G132N
The assay is described as above. Conditions: both partners purified.

Changes are numbered by the printed parent chain. Numbers in names are those of the source. Entries after “also recorded” stand apart in the source; their conditions may differ. Square brackets hold non-standard residues; d marks the D form. Ends that are not written are not given here. * marks the point of attachment. FITC = O=C1OC2(c3ccc(O)cc3Oc3cc(O)ccc32)c2ccc(NC(=S)*)cc21; Biotin = O=C1N[C@H]2[C@H](CS[C@H]2CCCCC(=O)*)N1; pT = C[C@@H](OP(=O)(O)O)[C@H](N)C(=O)O; Ahx = NCCCCCC(=O)O

On to “HSP70 C-terminal tail (from UniProt P0DMV8) pEEVD (pT636) peptide”, for which the fold change entry in assay [1] is “weaker”.
For the molecule “HSP70-T636A: phospho-null version of HSP70”, the “percent change of HSP70 level from time 0” value in assay [2] (cycloheximide +MG132, 6 h (column from layout)) is given as “+31%”; in assay [2] (cycloheximide, 6 h, without MG132 (column from layout)), -84%.

B1: CHIP-G132N: engineered CHIP variant to restore binding affinity to phosphorylated HSP70 (protein)
chain: T5 chain with G132N
B1: the “luminescence of CHIP variant with HSP70-T636A/D” value in assay [3] is “lower luminescence”. For the same molecule, in [4], the “ubiquitination of HSC70” value is “not different; also recorded: trend towards decreased ligase activity”. Also, the “effect on binding affinity towards phosphorylated EEVD tail” value in assay [5] was “rescued the binding affinity”. In assay [6], the “co-precipitation of HSP70 by CHIP variant” value is on record as “did not override the effect of the HSP70-T636D phosphomimetic”.

B2: CHIP-WT: wild-type CHIP, E3 ligase co-chaperone (protein)
chain: T5 chain
On to B2, for which, in assay [4], the “ubiquitination of HSC70” value is “not different”.

B3: amino-terminal biotin-labeled HSP70 tail peptide biotin-GSGSGPTIEEVD (peptide)
peptide: Biotin-GSGSGPTIEEVD
notes: C-terminal tail of HSP70; loaded on streptavidin sensors for BLI; also called biotin-EEVD; source: synthetic peptide, bought: Lifetein
As to B3, the binding result in assay [7] and in assay [8] was “binds” each time.

B4: phosphorylated HSP(C)70 peptide GP(pT)IEEVD (peptide)
peptide: GP[pT]IEEVD
notes: used for co-crystallisation with CHIP-TPR; also called pEEVD; pT-HSP70 peptide; source: synthetic peptide (Lifetein or Genscript)
For B4, in assay [9], the binding result is given as “binds”.

B5: amino-terminal biotin-labeled pT-HSP70 tail peptide biotin-GSGSGP(pT)IEEVD (peptide)
peptide: Biotin-GSGSGP[pT]IEEVD
notes: loaded on streptavidin sensors for BLI; also called biotin-pEEVD; pEEVD; source: synthetic peptide, bought: Lifetein
As to B5, the binding result in [7] and in assay [8] was “binds” each time.

B6: unphosphorylated HSP(C)70 peptide GPTIEEVD (peptide)
peptide: GPTIEEVD
notes: C-terminal tail of HSP70 (T636 is the third residue); used for co-crystallisation with CHIP-TPR; also called HSP70 peptide; HSP70 tail; source: synthetic peptide (Lifetein or Genscript)
As for B6, in assay [9], the binding result was “binds”.

B7: N-FITC-Ahx-GSGP(pT)IEEVD (peptide)
peptide: {FITC-Ahx}-GSGP[pT]IEEVD
notes: tracer of the fluorescence polarisation assay; also called pEEVD; phosphorylated EEVD peptide; source: synthetic peptide (Lifetein or Genscript)
As to B7, the values for the Kd in assay [10] and in [11] were 46 µM and 96 µM, respectively. Further, the binding result in assay [12], in [13] and in [14] was “binds” each time.

Values taken from article doi:10.1101/2025.02.17.637997, “Phosphorylation-State Modulated Binding of HSP70: Structural Insights and Compensatory Protein Engineering” (bioRxiv, 2025).
